Measured values: US20230028899A1

Molecular target: CD19 on CD19+ Raji B cells (UniProt P15391)
Experiment: cell-based or functional assay

Sequence of UniProt P15391 (P15391 20-556 limits assumed): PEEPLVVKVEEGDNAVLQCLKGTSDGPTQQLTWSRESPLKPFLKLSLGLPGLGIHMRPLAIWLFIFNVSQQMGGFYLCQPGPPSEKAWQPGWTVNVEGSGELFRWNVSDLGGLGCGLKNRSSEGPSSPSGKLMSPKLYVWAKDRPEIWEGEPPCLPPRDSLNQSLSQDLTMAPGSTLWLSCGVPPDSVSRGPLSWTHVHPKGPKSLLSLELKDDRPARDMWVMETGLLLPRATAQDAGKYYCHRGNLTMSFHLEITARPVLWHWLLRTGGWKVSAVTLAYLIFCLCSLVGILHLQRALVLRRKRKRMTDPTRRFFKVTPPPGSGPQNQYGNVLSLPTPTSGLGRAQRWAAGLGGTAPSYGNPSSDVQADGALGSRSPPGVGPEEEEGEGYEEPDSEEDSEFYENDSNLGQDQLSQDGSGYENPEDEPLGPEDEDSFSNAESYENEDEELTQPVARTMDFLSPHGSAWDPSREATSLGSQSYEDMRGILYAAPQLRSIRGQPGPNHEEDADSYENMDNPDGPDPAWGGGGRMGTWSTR

GFP fluorescence of transduced T-cells (GFP-RDE1, MinP), 24 h co-culture, flow cytometry: 6.5%
activated cells in the population (CD25/CD69 staining), 24 h co-culture, GFP-RDE1 construct: 0.9 to 84.8%
activated cells in the population (CD25/CD69 staining), 24 h co-culture, GFP-RDE2.1 construct: 3.9 to 12.1%
fold change in IL-12 expression (ELISA), NFAT promoter, 3'-UTR not responsive to CAR stimulation: 50 fold
fold change in IL-12 expression (ELISA), NFAT promoter, RDE1 (Gold1): 168 fold
fold change in IL-12 expression (ELISA), minP promoter, RDE1 (Gold1): 6.3 fold
fold increase in bioluminescence, MinP promoter, RDE1: 4.1 fold
fold increase in bioluminescence, MinP promoter, RDE2: 1.8 fold
fold increase in bioluminescence, MinP promoter, RDE3: 1.4 fold
fold increase in bioluminescence, NFAT promoter, RDE1: 8.5 fold
fold increase in bioluminescence, NFAT promoter, RDE2: 3.1 fold
fold increase in bioluminescence, NFAT promoter, RDE3: 1.3 fold
Substance: anti-CD19 CAR (anti-CD19 CAR cassette as described in WO 2012/079000), expressed on transduced CD4+ T-cells
